Experimental data: the nanobody polyreactivity screen of Harvey et al. (2022)

Assay: yeast display, Sf9 membrane polyspecificity reagent, FACS + sequencing; frameworks hold sequencing errors
Outline: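 Galactose-induced (36–48 hours) yeast carrying a synthetic nanobody display library were exposed to 10% biotinylated, detergent-solubilized Sf9 membrane reagent at 4 °C for 1 hour. FACS followed streptavidin microbead enrichment, using low and high (top ~1%) gates for expression (anti-HA) and reagent binding (streptavidin). Colony PCR, MiSeq 2 × 250 sequencing and CDR-length filtering followed. Labels for polyreactivity reflect the gate of origin.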

Row | Sequence | polyreactivity (PSR sort gate)
1 | QVQLVESGGGLVQAGGSLRLSCAASGFIFSRYAMGWYRQAPGKERELVAAISIGGSTYYADSVKGRFTISRDNAKNTVYLQMNSLKPEDTAVYDCAVDYRHSSSWNAGPWEMYYWGQGTQVTVSS | low polyreactivity
2 | QVQLEESGGGLVQAGGSLRLSCAASGRIFRANSMGWYRQEPGKERELVAAISFSGGGTYYADSVKGRFKISRDNAKNTVYLQMNCLKPEDTAVYYCAADWYVYSPYDYWGQGTQVTVSS | low polyreactivity
3 | QVQLVESGGGLVQAGGSLRLSCAASGFTFRRYVMGWYRQAPGKERELVAAISSGGRTNYADSVKGRFTISRYNAKNTVYLQMNSLKPEDTAVYYCNKASTSYYRFNYWGQGTQVTVSS | high polyreactivity
4 | QVQLVESGGGLVQAGGSLRLSCAASVRIFQYYVMGWYIQAPGKERELVAAITSGGGTKYADSVKGRFTISRDNAKNTVYLQMNSLIPEDTAVYFCAAAWFDQYSRYDYWGQGTQVTVSS | low polyreactivity
5 | QVQLVESGGGLVQAGGSLRLSCAASGITFRFYAMGWYRQAPGKERELVAVISRGGGTTYYADSVKGRFTISRDNAKNTVYLQMNSLKPEDTAVYYCNAVIAWYRSDEYDYWGQGTQVTVSS | high polyreactivity
6 | QVQLVESGGGLVQAGGSLRLSCAASGRTLQWNAMGWYRQAPGKERELVATISSGGSTKYADSVKGRFTISRDNAKNTVYLQMNSLKPEDTAVYYCNAQPFGMYYHRYYYWGQGTQVTVSS | low polyreactivity
7 | QVQLVESGGGLVQAGGSLRLSCAASGFIFVANAMGWYRQAPGKERELVAAISFSGGRTYYADSVKGRFTISRDNAKNTVYLQMNSLKPEDTAVYYCNTVSEWWAGDHPDAEFDYWGQGTQVTVSS | low polyreactivity
8 | QVQLVESGGGLVQAGGSLRLSCAASGRTFPWYVMGWYRQAPGKERELVAAISSGGGKYYADSVKGRFTISRDNAKNTVFLQMNSLKPEDTAVYYCAGRLYYRRSFVREMYYWGQGSQVTVSS | high polyreactivity
9 | QVQLVESGGGLVQAGGSLRLSCAASGSIFTRYAMGWYRQAPGKERELVAVISVSGGRTYYADSVKGRFTISRDNAKNTVYLQMNSLKPEDTAVYYCATDYYRPALDYWGQGTQVTVSS | high polyreactivity
10 | QVQLVESGGGLVQAGGSLRLSCAASGRIFAYYAKGWYRQAPGKERELVAAISRSGVSTYYADSVKGRFTISRDNAKNTVYLQMNSLKPEDTAVYYCAARWRSGFTSGDYWGQGTQVTVSS | low polyreactivity
11 | QVQLVESGGGLVQAGGSLRLSCAASVSISLYYAMGWYRQAPGKERELVAAISTRGGSTYYADSVKGRFTISRDNAKNTVYLQMNSLKPEDTAVYYCAARTRLTADPRYGISSKMYYWGQGTQVTVSS | high polyreactivity
12 | QVQLVESGGGLVQAGGSLRLSCAASGRTIWVYTMGWYRQAPGKERELVATINYRGGSTYYADSVKGRFTISRDNAKNTVYLQMNSLKPEDTAVYYCAADYSPPYPRYPYDYWGQGTQVTVSS | high polyreactivity
13 | QVQHVESGGGLVQAGGSLRLSCAASGSIFGRYAMGWYRPAPGKERELVAAITRSGVSTYYADSVTGRFTSARDNAKNTVDLQMNSLKPEDTAVYYCNAYYPIRSSPYGYYYWGQGTQVTVSS | high polyreactivity
14 | QVQLVESGGGLVQAGGSLRLSCAASGLIFAGYAMGWYRQAPGKERELVAAITWRGGRTYADSVKGRFTISRDNAKNTVYLQMNSLKPEDTAVFYCAVRRWGTSFVEDDYWGQGTQVTVSS | low polyreactivity
15 | QVQLVESGGVLVQAGGSLRLSCAASGSIFGTYAMGWYRRAPGKERELVAAITSDGVDTYYADSVKGRFTISRDNAKITVYLQMNSLKPEDTAVYYGAAEYEGLYGYGYWGQGTQVTVSS | high polyreactivity
16 | QVQLVESGGGLVQAGGSLRLSCAASGRTFYKYAMGWYIQAPGKERELVAAISSRGGRTYYADSVKGRFTISRDNAKNTVYLQMNSLKPEDTAVYYCAADYAVEWWGNWYEYWGQGTQVTVSS | high polyreactivity
17 | QVQLEESGGGLVQAGGSLRLSCAASGSIFGAYTMGWYRQAPGKERELVAAISIGGSKNYADSVKGRFTISRDNAKNTVYLQMNSLKPEDTAVYYCNAEPDLEDWWWAIGLYDYWGQGTQVTVSS | high polyreactivity
18 | QDQLVESAGGLVQAGGSLSLSCAASGNIFVYYAMGWYRQAPGKERELVAAITSDVSTYYADSVKGRFTISRDNAKNTVYLQMNSLKPEDTAVYYCATTGYGSYVIYGGQGTQVTVSS | low polyreactivity
19 | QVQLVESGGGLVQAGGSLRLSCAASGITFWKYAMGWYRQAPGKERELVAAISGRGGSTYYADSVKGRFTISRDNAKNTVYLQMNSLKPEDTAVFYCAKFPGISGYNYWGQGTQVTVSS | high polyreactivity
20 | QVQLVESAGGLVQAGASLRLSCAPSGSIFRINAMGWYRQAPGKERELVAAISTRSGRTYYADSVKGRFTISRDNAKNTVYLQMYSLNPEDTAVYYCARYRTQASGYGGYDYWGQGTQATVSS | high polyreactivity
21 | QVQHVESGGGLVQAGGSLRLSCAASGSIFYQNAMGWYRQAPGKERELVAAISSAGSTYYADSVKGRFTISRDNAKNTVYLQMNSLKPEDTAVYYCARRSSGELGYHIYDYWGQGTQVTVSS | low polyreactivity
22 | QVQLVESGGGLVQAGGSLRLSCAASGRTFIYYAMGWSRQAPGKERELVAGISRNGGRTYYADSVKGRFTISRDNAKNTVYLQMNSLKPEDTAVYYCNAYPPSRHDYLGQGTQVTVSS | high polyreactivity

Row | Sequence | polyreactivity (PSR sort gate)
23 | QVQLQESGGGLVQAGGSLLSCAASGTISYYREMGCYRQAPGKERELVAGIGVGTITYYADSVKGRFTISRDNAKNTVYLQLNSLKPEDNAVYYCAAHIDGNDSHAYWGQGTQVTVSS | low polyreactivity
24 | QVQLVESGGGLVQAGGSLRLSCAASGTLSSYAMGWYRQAPGKERELVAAISLSGGSTYADSVKGRFTISRDNAKKSVYLQMNSLKPEDTAVYYCAKDWDVEITWSFSIYNYWGQGTHVTVSS | low polyreactivity
25 | QVQLVESGGGLVQAGGSLRLSCAASGLTFWEYAMGWYRQAPGQERELVAAITRGGNTYYADSVKGRFTISRDNAKNTVSLQMNSLKPEDTAVYYCAARGYYLTGGCRRYYYWGQGTQVTVSS | high polyreactivity
26 | QVQLVESGGGLVQAGGSLRLSCAASGFIFSKYAMGWYRQAPGKERELVAAITRSGGRTYYADSVKGRFTISRDNAKNTVYLQMNSLKPEDSAVYYCAASWLYFGRDYWGQGTQVPVSS | high polyreactivity
27 | QVQLVESGGALVQAGCSLRLSCAASGRTFYRNAMGWYRQAPGKERELVARISRNGGTTYYADSVKGRFTISRDNAKNTVYLQMNSLIPEYTAVYYCAAPIYDGARGDYWGQGTQVTVCS | high polyreactivity
28 | QVQLVESGGGLVQAGGSLRLSCAASGRIFYYNTMGWYRQAPGKERELVAAITRSGGSTYYADSVKGRFTISRDNAKNTVYLQMNSLKPEDTAVYYCAAQRRYDTADHGYWGQGTQVTVSS | high polyreactivity
29 | QVQLVQSGGGLVQAGASLRLSCAASGSTFWKYAMGWYRQAPGQERELVASIRSGGSTYYADSVKGRFTISRDNAKNTVYLQMNSLIPEDTAVYYCAAVTHGRYDWVQGTQVTVSS | high polyreactivity
30 | QVQLVESGGGLVQAGGSLRLSCAASGSTLDSYARGWYRQAPGTERELVAVIDTGGTTNYADSVKGRFTISRDNAKNTVYLQMNSLKPEDTAVYYCAADYAYYGYWFEGYDYWGQGTQVTVSS | low polyreactivity
31 | QVQLVESAGGLVQAGGSLRLSCPASGRIFSIYGMGWYRQAPGKERELVAVISGSVGITYYADSVKGRFTISRDNAKNTVYLQMNSLKPEDTAVYFCNAKVRRRKYDYWGQGTQVTVSS | high polyreactivity
32 | QVQLVESGGGLVQAGGSLRLSCAASGRTFSTNAMGWYRQAPGKERELVAAISASGGSTYYADSVKGRFTISRDNAKNTVYLQMNSLKPEDTAVYYCAAYPGQWRTGYDYWGQGTQVTVSS | high polyreactivity
33 | QVQLVESGGGLVQAGGSLRLRCAASGRTFYRYAMGWYRQAPGKERELVASINRGGSTNYADSVKGRFTISRDNAKNTVYLQMNSLKPEDTAVYYCACYCYCYWGQGTQVTVSS | low polyreactivity
34 | QVQLVESGGGLFQAGGRLRLSCAASGSTFGYNAMGWYREAPGKERELVAAISYSSGSTYYADSVKGRFTISRDNAKNTVYLQMNSLKPEDTAVYYCAVVSRASRRGGRYDYWGQGTQVTVSS | high polyreactivity
35 | QVQLVESGGGLVQAGGSLRLSCASSGITFDYYDMGWYRQPPGKERELVAAISTGGGRTYYADSVKGRFTFSRDNAKNTVYLQMNSLKPEDTAVYYCAATYTRVPNRFYYWGQGTQVTVSS | high polyreactivity
36 | QVQLVESGGGLVQAGGSLRLSCAASGNIFYYNAMGGNRQAPGKERELVAAITTGGSTNYADSVKGRFTISRDNAKNTVYLQMNSLTPEDTAVYDCAADFIRYINRLLYDYWGQGTQVTVSS | low polyreactivity
37 | QVQLVESGGGLVQAGGSLRLSCAASGRIFYYYDMGWNRQAPGQERELVAAISFSDGITYYADSVKGRFTISRDNAKNTVYLQMNSLKPEDTAVYYCAAVYRYRNRREYDYWGQGTEVTVSS | high polyreactivity
38 | QVQLVESGGGLVQAGGSLRLSCAASGTFRVYAMGWYRQAPGKERELVAAISRSGTSTYYSDSVKGRFTISRDNAKNTVYLQMNSLKPEDTAVYYCNDVVRGQYDWGQGTQVTVSS | high polyreactivity
39 | QVQLVESGGGLVQAGGSLRLSCAASGFIFKRYVMGWYRQAPGKERELVAGITRSGSSTSYADSVKGRFTISRDNAKNTVYLQMNSLKPEDTAVYYCAARAWKKLDYWGQGTQVTVSS | high polyreactivity
40 | QVQLVESGGGLVQAGGSLRLSCAASGSIFSLYAMGWYRPAPGKERELVAGISRSGGSTYYADSVKGRFTISRDNAKNTVYLQMNSLKPEDTAVYYCAARVKVRDFKGYYWGQGTQVTVSS | high polyreactivity
41 | QVQLVESGGGLVQAGGSLRLSCAASGIIFRVYTMGWYRQAPGKERELVAGLSSGDSTSYADSVKGRFTISRDNAKNTVYLQMNSLKPEDTAVYYCNAVAYYSYSANFRNAYDYWGQGTQVTVSS | low polyreactivity
42 | QVQLVESGGGLVQAGGSLRLSCAASGRIFYYYAMGWYRQAPGKERELVAAISAGGGRTYYADSVKGRFTISRDNAKNTVYLQMNSLKPEDTAVYYCAVGRRIPGKYTSFGYWGQGTQVTVSS | high polyreactivity
43 | QVQLVESGGGLVQAGGSLRLSCAASGRTFSRYAMGWSRQAPGKERELVASITSRGGSTYYADSVKGRFTISRDNAKNTVYLQMNSLKPEDTAVYYCNVKPTYSTRYWEDYWGQGTQVTVSS | high polyreactivity
